The text below walks through data of US20110135573A1, “METALLOPROTEINASE 9 AND METALLOPROTEINASE 2 BINDING PROTEINS” (DYAX CORP., priority 2009, published 2011).

Assay in all cases: Biacore 3000 binding to antibody-coated CM5 chip
The target in one assay is T1, human TIMP-1 (Homo sapiens, UniProt P01033).
T1 construct: purchased R&D Systems 970-TM
The note with it: Direct capture; 25° C. The method, then:
(§1) Experiments were performed at 25° C. with the help of a Biacore 3000 instrument. The MMP-9 binding protein (M0166F10) and the M0237-D02 antibody were coated to a CM5 chip either via standard amine coupling or using an anti-Fc antibody surface. Then either the active, human MMP-9 catalytic domain (BIOMOL, SE-244), the human pro-MMP-9 (R&D, 911-MP), the human TIMP-1 (R&D, 970-TM) or a h-MMP-9/h-TIMP-1 complex were flowed over the antibody surfaces, and binding was recorded.

For a further assay, the target named is T2, human pro-MMP-9 (Homo sapiens, UniProt P14780).
T2 construct: the human pro-MMP-9 (R&D, 911-MP); purchased R&D Systems 911-MP
The note with it: Direct capture, 25° C. How it is done: as §1

Assay [1] addresses T3, Human MMP-9 catalytic domain (Homo sapiens, UniProt P14780).
T3 construct: Human MMP-9 catalytic domain (BIOMOL, SE-244); purchased BIOMOL SE-244
The note with it: 25° C. How it is done: as §1

The target in another assay is h-MMP-9/h-TIMP-1 complex (Homo sapiens, UniProt P14780). The note with it: Direct capture, 25° C. The method, then: The non competitive inhibition model implies that the ternary complex enzyme-substrate-inhibitor can form. It is however possible that this complex cannot form with bigger substrates, in which case the antibody would behave as a competitive inhibitor. In order to address this issue, the ability of M0237-D02 antibody to bind to the h-MMP-9 when the enzyme is complexed to its natural inhibitor h-TIMP-1 was determined. The reasoning is that if the antibody cannot bind to the h-MMP-9/h-TIMP-1 complex, it would probably behave as a competitive inhibitor of this enzyme in the presence of bigger substrates.
as §1

T3 sequence (P14780 107-444 limits assumed): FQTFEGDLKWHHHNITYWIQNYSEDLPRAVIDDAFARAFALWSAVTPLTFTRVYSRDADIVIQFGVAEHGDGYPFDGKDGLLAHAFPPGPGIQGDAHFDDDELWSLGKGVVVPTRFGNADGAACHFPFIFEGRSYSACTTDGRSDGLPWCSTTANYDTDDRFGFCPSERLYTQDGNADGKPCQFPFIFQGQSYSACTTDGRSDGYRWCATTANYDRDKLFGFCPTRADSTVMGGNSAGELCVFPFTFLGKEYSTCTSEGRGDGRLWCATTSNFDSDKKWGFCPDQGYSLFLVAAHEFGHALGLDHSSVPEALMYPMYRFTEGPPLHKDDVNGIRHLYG
h-MMP-9/h-TIMP-1 complex, sequence (P14780 107-444 limits assumed): as above
h-MMP-9/h-TIMP-1 complex, sequence (P01033 24-207 partner): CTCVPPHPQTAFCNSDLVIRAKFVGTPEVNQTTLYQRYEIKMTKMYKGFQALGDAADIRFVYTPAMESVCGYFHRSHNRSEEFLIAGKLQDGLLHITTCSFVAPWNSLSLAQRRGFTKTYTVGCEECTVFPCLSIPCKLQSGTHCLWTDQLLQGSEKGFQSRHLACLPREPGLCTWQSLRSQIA
T2 sequence (P14780 20-707 limits assumed): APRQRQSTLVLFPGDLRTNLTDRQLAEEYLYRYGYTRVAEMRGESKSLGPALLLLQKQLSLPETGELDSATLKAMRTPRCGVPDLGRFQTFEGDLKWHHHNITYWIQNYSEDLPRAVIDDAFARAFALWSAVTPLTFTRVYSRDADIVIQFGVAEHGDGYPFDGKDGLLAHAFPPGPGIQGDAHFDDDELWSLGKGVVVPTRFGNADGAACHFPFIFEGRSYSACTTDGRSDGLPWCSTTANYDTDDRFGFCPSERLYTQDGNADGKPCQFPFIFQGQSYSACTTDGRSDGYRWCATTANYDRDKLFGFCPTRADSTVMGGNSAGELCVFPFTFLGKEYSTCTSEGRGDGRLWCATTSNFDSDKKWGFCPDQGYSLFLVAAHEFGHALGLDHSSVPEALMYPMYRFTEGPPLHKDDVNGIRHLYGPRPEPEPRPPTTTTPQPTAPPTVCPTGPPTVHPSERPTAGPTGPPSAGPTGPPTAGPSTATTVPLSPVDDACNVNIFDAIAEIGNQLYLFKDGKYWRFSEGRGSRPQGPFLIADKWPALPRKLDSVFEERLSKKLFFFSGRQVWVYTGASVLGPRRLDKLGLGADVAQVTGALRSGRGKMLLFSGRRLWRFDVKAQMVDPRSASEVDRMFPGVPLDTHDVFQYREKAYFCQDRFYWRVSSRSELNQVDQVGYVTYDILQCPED
T1 sequence (P01033 24-207): as the sequence (P01033 24-207 partner) above

B1: M0166-F10: inhibitory MMP-9 binding antibody (hMMP-9 antibody inhibitor) (antibody, V domains shown)
VH: EVQLLESGGGLVQPGGSLRLSCAASGFTFSPYLMNWVRQAPGKGLEWVSSIYSSGGGTGYADSVKGRFTISRDNSKNTLYLQMNSLRAEDTAVYYCARIYHSSSGPFYGMDVWGQGTTVTVSS
VL: QSELTQPPSASAAPGQRVTISCSGSSSNIGSNTVTWYQKLPGTAPKLLIYNNYERPSGVPARFSGSKSGTSASLAISGLQSEDEADYYCATWDDSLIANYVFGSGTKVTVLGQPKANP
Consider B1, for which the “binding of huTIMP-1” value with human TIMP-1 is listed as “No”. In addition, the entries for the “binding of Pro-huMMP-9” value with human pro-MMP-9 and in the assay with human pro-MMP-9 (listed as 539A-M0166F10) were “observed neither” and “~No”, respectively. For the same molecule, the “binding of Cat-huMMP-9” value is “binds” in assay [1] (Direct capture (amine coupling)); “Yes” in assay [1] (Direct capture (amine coupling), listed as 539A-M0166F10); “binds” in assay [1] (Fc capture (anti-Fc antibody surface)); “Yes” in assay [1] (Fc capture (anti-Fc antibody surface), listed as 539A-M0166F10). Moreover, the “binding of huTIMP-1/cat-huMMP-9” value with h-MMP-9/h-TIMP-1 complex is “no binding was observed”; in the assay with h-MMP-9/h-TIMP-1 complex (listed as 539A-M0166F10), “No”.
